Laboratory results as given in patent CN113045656A (TAIZHOU ENZE MEDICAL CT GROUP, dated 2021).

Target: T1, G5-pep2(299-319aa) 抗原肽 (human)
T1 peptide: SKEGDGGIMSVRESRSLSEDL
Assay: indirect ELISA, peptide coated at 2 ug/ml, purified antibody in 2-fold dilutions from 1:200, logistic fit

Ka: 1.5e+11 M⁻¹
X0 (midpoint of the logistic fit, antibody dilution factor): 1.56e+06 dilution fold
B1: 抗HLA-G异构体分子HLA-G5及HLA-G6的单克隆抗体(9Y5G6) (antibody, V domains shown)
VH: VQLQESGGGLVQPGGSRKLSCAASGFTFRDFGMAWVRQVPGMGPEWVASISNLARIIDYADTVTGRFTISRENAKNTLYLEMNSLRSEDSAIYYCARVTTIVPDYWGQGTSLTVSS
VL: DIVITQDELSLPVSLGDHTSISCRSSQSLLHSNGHTYLHWYLQKPGQSPKLLIYKVSNRFSGVPDRFSGSGSGTDFTLKISRVEAEDLGVYFCSQSTHVPWTFGGGTKVEIKR
notes: only the CDRs are; also called 抗HLA-G单克隆抗体(9Y5G6)
